# Results published in article PMC4072346.
# Substrate: O=[N+]([O-])c1ccc(OP(=O)(O)O)cc1
# Test: purified protein
# Format: biochemical, Homo sapiens
# Details: pH 7.5
Protein,Km,kcat [s⁻¹],kcat/Km [M⁻¹ s⁻¹]
PHLPP2 (Homo sapiens) (protein) SHGLAEMAGQRNKLCVSALAMDSFAEGVGAVYGMFDGDRNEELPRLLQCTMADVLLEEVQQSTNDTVFMANTFLVSHRKLGMAGQKLGSSALLCYIRPDTADPASSFSLTVANVGTCQAVLCRGGKPVPLSKVFSLEQDPEEAQRVKDQKAIITEDNKVNGVTCCTRMLGCTYLYPWILPKPHISSTPLTIQDELLILGNKALWEHLSYTEAVNAVRHVQDPLAAAKKLCTLAQSYGCQDNVGAMVVYL,(1.3 ± 0.2) × 10^–3 M,0.37 ± 0.08,285 ± 9
PHLPP1 (Homo sapiens) (protein) PRLVLDHKTLELLNNIRCFKIDQPSTGDASGAPAVWSHGYTEASGVKNKLCVAALSVNNFCDNREALYGVFDGDRNVEVPYLLQCTMSDILAEELQKTKNEEEYMVNTFIVMQRKLGTAGQKLGGAAVLCHIKHDPVDPGGSFTLTSANVGKCQTVLCRNGKPLPLSRSYIMSCEEELKRIKQHKAIITEDGKVNGVTESTRILGYTFLHPSVVPRPHVQSVLLTPQDEFFILGSKGLWDSLSVEEAVEAVRNVPDALAAAKKLCTLAQSYGCHDSISAVVVQLSVTEDSFCCCELSAGGAVPPPSPGIFPPSVNMVIKDRPSDGLGVPSSSSGMASEISSELSTSEMSSEVGSTASDEPPPGA,(2.1 ± 0.2) × 10^–3 M,0.0018 ± 0.0003,0.9 ± 0.2
